The test system of the data set is Saccharomyces cerevisiae. Briefly: transcriptional activation domain activity (GFP:mCherry ratio, weighted mean of sorted bins, harmonized to initial dataset scale) (arbitrary fluorescence ratio units); higher = stronger transcriptional activation. The settings on record: beta-estradiol 1 µM; induction time 4 h. In short, it runs like this: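 Values are activation activity, found as the read-weighted mean of bin median fluorescence, averaged across barcodes and then mapped linearly onto the initial dataset scale. Barcoded protein tiles fused to an estradiol-inducible synthetic transcription factor were integrated at the URA3 locus of GFP-reporter yeast diploids. Cells were induced for 4 hours at 30 °C with 1 uM beta-estradiol in SC, sorted into 8 bins by GFP:mCherry ratio, and barcode-sequenced, with tiles under 50 reads discarded.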

For “MLHPTIVYPFITHLLLLILLFSLLPRFSYDADMDFLLVFSSFVLLLCFPWFED”, the “transcriptional activation domain activity” value stood at 40400.

Turning to “MLHSISTYLIFPLLYLFILSFNIYHFFFFSLKIITILIFLHTFVLLLFSWRKY”, the “transcriptional activation domain activity” value is 60400.

Regarding “MLHSLYVVAISKSGILSSFVNPTTTTVHYTPFEISMIGYFNLVLIWLKLLILW”, the “transcriptional activation domain activity” value turned out to be 61300.

Take “MLHVVGGYSRVRTWVIFLFVFRIGGRAYIDWIGFFFMGFLHWIRFIVVMVLFL”: the “transcriptional activation domain activity” value came to 41800.

Turning to “MLICLFVVFSPFFLFIFLYLSAYRLSFFNFSCFLLFLYLFLIHLLYFPLYFIF”, the “transcriptional activation domain activity” value is 61200.

In the case of “MLIFVLIVCISLGLAMSFDSLSLHLQLHRLFCIFCVIFILFAHSFSVGLSCYI”, the “transcriptional activation domain activity” value came out at 72000.

Take “MLIFYFYFYFYFYLNFFYFFSFVSGWFVLGKDVFVLFLFPFSLSGFSYFVFGY”: the “transcriptional activation domain activity” value came out at 46700.

Consider “MLIGTVFLICSLNLCLLFLGWAWGCIVLYLDDLNILLLSCLFTFFLCTFTFFS”, for which the “transcriptional activation domain activity” value came to 40900.

In the case of “MLIIGRIARWYIHPIAIVWFYLLHVSHFLYFLLVAEFQPRYIHVYLYLYLLST”, the “transcriptional activation domain activity” value turned out to be 47400.

Consider “MLIILLSSLVLWRLGSPCFFYTLFLFYISERSISQLPPPPTLLSILFFFTFIA”, for which the “transcriptional activation domain activity” value came to 53100.

On to “MLILLLLLLLLLLLLLLLIMIMIMILMIFLLLFMILIFLLVIMREFCWLWVLW”, for which the “transcriptional activation domain activity” value was 44900.

Consider “MLILLYLSLLPILYFCTDGLIKDTLLYLHACGLIVWWHCPSSTGDMYGLRHFW”, for which the “transcriptional activation domain activity” value worked out at 55800.

“MLINKLIVLRELCYSDDAAKQIVMYVISLFLSLIFYSFLPCLGLICLSILVPS”: the “transcriptional activation domain activity” value was found to be 49100.

Take “MLIQSQPQPPPTKHTPLYFIPHFILLLLLALSPSLTLLTLSFFYLFLFCYLLV”: the “transcriptional activation domain activity” value amounted to 20900.

For the sequence “MLISLLVRLGLDIFMHLYMLLLHISQFSDLLHTRSFLLILFLISGASKRLFFF”, the “transcriptional activation domain activity” value turned out to be 51900.

Regarding “MLIVSRAGFLAFLLCYLHFCSVVVHVFSLPIGQPVTGYGNGNSVNPRSPIVPS”, the “transcriptional activation domain activity” value was 52100.

As for “MLKLCFFCAFLFLFLIIYYIYIFCFFFPFSLPSFSFFSFIPALIFFFFVVVEP”, the “transcriptional activation domain activity” value worked out at 48200.

As for “MLKLFWTISKVFGPSDLTLQERGHYMELIIALRFIQGWWQDRDLNGFLPLWVR”, the “transcriptional activation domain activity” value turned out to be 65000.

As for “MLLALRMFEELKLFFLSFVFLSQFFFFIYLFLVHYCKWRMVTLPYSVFTFFLV”, the “transcriptional activation domain activity” value was 44000.

As for “MLLAMGWKVATGLQTLSIFRRDGFLYFLVWINLINTMIVLFARPTLLFVTIFF”, the “transcriptional activation domain activity” value turned out to be 51900.

For the sequence “MLLASGCWIQSTYGLFYKCLYFFYLAIFFDHFTFSLNNFLITQCRYPIISLFI”, the “transcriptional activation domain activity” value worked out at 78000.

For the sequence “MLLCLSFLCCYYDISNVSRCYCLFCCIILLFLSCSLLFWLAFSQFLRFFLISF”, the “transcriptional activation domain activity” value was 62000.

As to “MLLDPRVIPLIFSTLFLFLHFNFLPNFPPLPLSFHPRPTLLPPFCSLLFPLLF”, the “transcriptional activation domain activity” value is 80000.

“MLLFFSFSLCRFLFLSLLLVFLMDAFSFLCFLLIQPPLPCLRSFFSLFLIFVL”: the “transcriptional activation domain activity” value is 38900.

Turning to “MLLFIFWRLLYFFILGSLLRAQSRRKWLVRWCREHGFGPNPRRPRSGWVTFWV”, the “transcriptional activation domain activity” value amounted to 59600.

“MLLFSKLYYEAVGVGCLSYFDFQSLQVWVLDICASWYFVLAFNSYFVVSLFFG”: the “transcriptional activation domain activity” value was 36200.

“MLLFYILLSFSISSFFVCSLSNMLFFYMHHLIYMLTIFFYLLFNPITPILFFV”: the “transcriptional activation domain activity” value stood at 51300.

Turning to “MLLGCRKRYSAHPFNDFLSFFIFYSSLFFYSLLSPFPFPPHSTPVTSFFILFY”, the “transcriptional activation domain activity” value was determined as 53700.

Consider “MLLGRHIFLYFILSFFLSFWLHTIPYLLLDFTYYHNPIISTLPTSYFFSIFLI”, for which the “transcriptional activation domain activity” value was 72200.

Turning to “MLLHLLPILCPDCIFSASITFAVLSFLLSPCPLLPFSLLPLLCFFISIILRSV”, the “transcriptional activation domain activity” value came to 42100.

In the case of “MLLHVFRLIEIIEILWISCICAILLVVFVILEVCNLFVLGRKISFLMFCVWVI”, the “transcriptional activation domain activity” value worked out at 54400.

On to “MLLICMSVWLCALSLCILRCRENFFVLMGDVFFFLASMWYGTVSQFVRRPLFH”, for which the “transcriptional activation domain activity” value worked out at 48100.

Regarding “MLLIWLYALKTGFVLSAVVSFGFWYSISLFFMYFIGKPLFHDSFFLFFSSFFL”, the “transcriptional activation domain activity” value was determined as 57200.

As for “MLLIWLYALKTGLVLSGSFLLAFGTQYPFFFMYFIGKPLFHDSFFLLSFLFFP”, the “transcriptional activation domain activity” value amounted to 70200.

Take “MLLKRVHSKVYVQDCLLIGGRSIFVLDMHLFFKLLLFTAASIRNQTVIMLIFV”: the “transcriptional activation domain activity” value stood at 54100.

Take “MLLKVSEPFSLFVYISGSAITLFSFFKFLFSLFFLLLILFFFPLFFFFPIVIV”: the “transcriptional activation domain activity” value was found to be 80000.

As to “MLLLFVYPCSPLSHCSSFYSYYLIIKLLLFYDIKNLSFFFFLEYFDLWWLITI”, the “transcriptional activation domain activity” value was 78500.

Consider “MLLLGYILYLFYYGRYLYGILAFYCFSLLYVTLLPFIFVSARLFLHFTQIGIR”, for which the “transcriptional activation domain activity” value came to 53600.

Consider “MLLLKCSLSWIIRKGIYRAKSVMYLWVVANECCSLSMAEWLFLHQSVCSICQC”, for which the “transcriptional activation domain activity” value turned out to be 58100.

For the sequence “MLLLLIIRKVLILGKPFFINHLHILLYPDTVLSPFLLLSFPLTLPLSLLLLLL”, the “transcriptional activation domain activity” value was determined as 106000.

Take “MLLLLITHIGIAILFVCWNPRFSCPNQSPDQQGTCRLFNMYILISSWIIPAFL”: the “transcriptional activation domain activity” value came out at 55600.

As to “MLLLLPLHMLLQRHTLPNFFTFFSIIIIFLFLFSFFFFLFFFFLLFFLLLPGG”, the “transcriptional activation domain activity” value is 76400.

In the case of “MLLLLYLILYLMMMLFAVCALISIYLCIYTLPLLSFPFFLALFYFILFLYVYL”, the “transcriptional activation domain activity” value is 45200.

As for “MLLLPFIPSYLTFFLIFLFVLFDFHFWFLFLFGLTFSCCCWTLSFCKTSLIWF”, the “transcriptional activation domain activity” value amounted to 57700.

For “MLLLPLSFPFLSFPFLSFPFLSFPFLSSPFLSLVFSVLVLFFIFLLLLLLLLL”, the “transcriptional activation domain activity” value is 34900.

In the case of “MLLLPYAVFCIISFFHSFLFFLLLGGWLGCIFYLRVVHMHWLVRWFVWLVHGG”, the “transcriptional activation domain activity” value is 65300.

For “MLLLRVAGGRVMGCDVVGGFFFIFLFYLFIILGFVCCLVGWHVCWVFWFLVGF”, the “transcriptional activation domain activity” value came to 54300.

Turning to “MLLLSPFFPFLLPSSLSFFFPFPFISTLLSFCLSDTLFNLARSFFIAFLSTLF”, the “transcriptional activation domain activity” value is 42600.

With “MLLMPRLCPVYLIHFCMIYALHLVAPHLSFPLISSGFLIIFTLHYTSTLLTCL”, the “transcriptional activation domain activity” value stood at 49400.

For the sequence “MLLNLRGHIDEHLQYIIATSFKLMDTAETFALRLANLEVLINTVLYNAAAALH”, the “transcriptional activation domain activity” value turned out to be 48600.

As for “MLLNMLMLWILYIFSVTTFSTFRYFIILPVPSLMDYSEFFRACMLGAFVLSPV”, the “transcriptional activation domain activity” value is 71000.

Turning to “MLLNVFFFFPSSILGSFLYTDLFYFGFFSLIMLFPFKLPCIQPTFFFFTPSFI”, the “transcriptional activation domain activity” value worked out at 44500.

Take “MLLPFVCLLFFLLAFLFSLSLSALFCFSKRRLIPILFFIASLLLYNFVFPPFF”: the “transcriptional activation domain activity” value was 38400.

Consider “MLLPVSYSWLPLLFIPTNASPAFIFLFFVCTYFLNRPCVYCSFLLLILFVTSC”, for which the “transcriptional activation domain activity” value came to 42200.

For “MLLRRAVSLGVEGFFIFFYFLLMGLHCICLRGSSPWVDMFLFFVFFVSLVGFF”, the “transcriptional activation domain activity” value came out at 72200.

Consider “MLLSAHFIDFFLLLLLLLLLHLIVPLIFILHHSLLFFLVLPIVCNYFFSWLPV”, for which the “transcriptional activation domain activity” value is 78400.

Turning to “MLLSIWCHHFTFLFFFFFFFDHRFFCFFYSHLFYAVSYSFLLLLLLLYELLLV”, the “transcriptional activation domain activity” value was 47100.

Regarding “MLLSLGPVLFSFGHPPLIHLCLVPHPVFFSYPFSLLFISPISSLDYFCFSFPF”, the “transcriptional activation domain activity” value amounted to 45400.

As to “MLLSLYLLTPFFIDMLLALHPFTLLCVHLPTCPCILLSCFRSYPCLSLWFPFS”, the “transcriptional activation domain activity” value was determined as 45900.

Turning to “MLLSMLYNSVGYQYLEDHCPQGGEYSDLLRNLINECEAILPSYEIIERYKNHF”, the “transcriptional activation domain activity” value stood at 39500.

On to “MLLSSLLCYFLNFSSSSHSVGGWFILPYGNRLLHVAFFPSLLLFRLFFFLWLA”, for which the “transcriptional activation domain activity” value worked out at 52600.

Regarding “MLLTFFFPLYCTSSFRVTQFLYPFQTLLFTFVFQAYLLLFLLFLLLLLLCFSP”, the “transcriptional activation domain activity” value is 41000.

For the sequence “MLLTLLLLYILRRCAHTSYIFFSHSGFDFGHLIWGWVSCRLLTFWFLLYSSLL”, the “transcriptional activation domain activity” value was 33100.

On to “MLLTLLWLFFFFFFFFFPNIPPGVLFTFPSFDLLFASWFISSICASPFFAQFP”, for which the “transcriptional activation domain activity” value is 56100.

Take “MLLTLQSYFFFLLMFLVNSVSLLSFFSIFVFIIFLRYGCRMLWWHLHCIYPIF”: the “transcriptional activation domain activity” value was 38000.

Consider “MLLTVYMFIIVCTCLAQLKIQSLSFLIYYHYINLVLLLLIAGLLYGLSFVRFS”, for which the “transcriptional activation domain activity” value was determined as 48500.

Turning to “MLLTVYMFIIVFSFFICYHYINLVLQILIAGLLYGLSYVRFSMNWIIYFYNQC”, the “transcriptional activation domain activity” value came to 78400.

“MLLVSLVRVVHGFTVQQYIYTGQWLLYISLIFFLLHFPLVMKPITFLTILCLA”: the “transcriptional activation domain activity” value was found to be 55100.

Consider “MLLYTFILIVHIHRDLGSIDFVWKARNETASLRQRYLAVNYQLLFGVIKYLWA”, for which the “transcriptional activation domain activity” value came to 33400.

On to “MLMAWVIHAKCSAVPQCPPRPAVRSYIGRITLSLIIRARCILEMIVFPTFICW”, for which the “transcriptional activation domain activity” value was determined as 55600.

In the case of “MLMDLALTLDDLTVRSLSVVGASVFMAFTYATLPATLGWGTWFLLSVWTLIFY”, the “transcriptional activation domain activity” value amounted to 64200.

Regarding “MLMFLRCGLGLRFGVLVCGCRSTFVCWSLQRAFANMLRARSLPWIFLAWVILL”, the “transcriptional activation domain activity” value came out at 76000.

For “MLMGCLCSYLRPHSLGCEGCYLLLHSLFIYGLRLVIGRFMSWSFSLVSFLFFY”, the “transcriptional activation domain activity” value was 62100.

“MLMHASPRMPIVQIFFFIFIHLSPPPFPFFFSLILSHRYSISFFLSLFSLLYF”: the “transcriptional activation domain activity” value is 35800.

For the origin of these results see the supplement of paper PMC12636428.
